Measured values taken from patent EP4603109A1 (Sichuan Kelun-Biotech Biopharmaceutical Co., Ltd., dated 2024).

How the values were obtained:
[1] = biological target: monkey B7-H3-his protein (monkey); experiment: BLI (ForteBio), ADC on Protein A sensor, antigen 200-3.125 nM, 1:1 global fit (result 2)
[2] = biological target: T1, human B7-H3-4Ig-his protein (human, UniProt Q5ZPR3 29-461, limits assumed); experiment: as above
T1 construct: not shown: His tag
T1 sequence (looked up): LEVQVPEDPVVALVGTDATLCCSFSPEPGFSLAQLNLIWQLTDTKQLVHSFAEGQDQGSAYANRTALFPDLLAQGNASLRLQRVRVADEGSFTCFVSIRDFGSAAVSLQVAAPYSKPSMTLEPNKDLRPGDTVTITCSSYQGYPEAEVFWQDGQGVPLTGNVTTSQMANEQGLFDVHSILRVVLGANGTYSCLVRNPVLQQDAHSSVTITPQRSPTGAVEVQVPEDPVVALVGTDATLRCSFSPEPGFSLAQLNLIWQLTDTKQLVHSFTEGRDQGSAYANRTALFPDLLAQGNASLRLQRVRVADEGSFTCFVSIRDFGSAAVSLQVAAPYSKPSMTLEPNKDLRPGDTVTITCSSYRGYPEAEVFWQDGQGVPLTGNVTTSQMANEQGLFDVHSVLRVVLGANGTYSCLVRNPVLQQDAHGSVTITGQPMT

[3] = biological target: T2, human B7-H3-2Ig-his protein (human, UniProt Q5ZPR3-2 29-245, limits assumed); experiment: as above
T2 construct: the 2Ig form is its isoform 2; not shown: His tag
T2 sequence (looked up): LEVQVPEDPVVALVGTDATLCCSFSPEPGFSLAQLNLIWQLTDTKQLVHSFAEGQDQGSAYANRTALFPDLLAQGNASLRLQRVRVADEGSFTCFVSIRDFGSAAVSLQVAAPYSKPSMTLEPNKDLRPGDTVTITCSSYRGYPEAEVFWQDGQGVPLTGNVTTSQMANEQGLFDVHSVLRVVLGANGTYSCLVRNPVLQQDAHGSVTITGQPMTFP

[4] = biological target: T3, B7-H3 on human tumor cell lines (HT29, NCI-N87, HCC1806, HCC827, A375) (human, UniProt Q5ZPR3 29-534); experiment: flow cytometry on HCC827 cells (experiment 2)
T3 construct: whole, on cells
T3 sequence (looked up): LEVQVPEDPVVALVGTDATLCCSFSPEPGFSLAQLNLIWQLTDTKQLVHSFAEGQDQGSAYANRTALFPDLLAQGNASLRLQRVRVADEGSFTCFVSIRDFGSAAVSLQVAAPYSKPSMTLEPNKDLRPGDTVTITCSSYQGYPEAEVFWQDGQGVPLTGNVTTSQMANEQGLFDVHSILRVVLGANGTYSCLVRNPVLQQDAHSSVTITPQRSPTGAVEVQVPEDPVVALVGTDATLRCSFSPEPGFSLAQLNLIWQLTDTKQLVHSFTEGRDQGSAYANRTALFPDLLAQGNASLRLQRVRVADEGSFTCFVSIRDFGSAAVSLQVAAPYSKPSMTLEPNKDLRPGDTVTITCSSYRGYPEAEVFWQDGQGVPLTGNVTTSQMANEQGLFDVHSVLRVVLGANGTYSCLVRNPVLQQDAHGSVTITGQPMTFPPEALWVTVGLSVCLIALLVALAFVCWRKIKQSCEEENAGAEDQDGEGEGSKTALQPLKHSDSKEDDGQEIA

[5] = biological target: T4, rat B7-H3-his protein (rat, UniProt Q7TPB4 29-248, limits assumed); experiment: BLI (ForteBio), ADC captured on Protein A sensor (result 2)
T4 construct: not shown: His tag
T4 sequence (looked up): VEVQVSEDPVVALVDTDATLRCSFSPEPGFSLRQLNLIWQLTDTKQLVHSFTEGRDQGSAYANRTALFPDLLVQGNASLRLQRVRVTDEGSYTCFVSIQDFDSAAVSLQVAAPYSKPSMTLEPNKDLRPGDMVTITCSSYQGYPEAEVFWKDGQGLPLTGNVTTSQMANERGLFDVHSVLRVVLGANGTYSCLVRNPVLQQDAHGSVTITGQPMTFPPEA

[6] = biological target: T3, B7-H3 on human tumor cell lines (HT29, …); experiment: flow cytometry on HT29 cells (experiment 2)

B1: ADC 17 (2#8890-B-03, DAR 8) (antibody, human IgG1, kappa, V domains shown)
VH: QVQLQESGPGLVQPSGTLSLTCAVSGGSDSSTNWWTWVRQSPGQGLEWIGEISPIGFTSYSPSLRSRVTISVDKSKTQFSLKLSSVTAADTAVYYCARDRLYFAFWGQGTLVTVSS
VL: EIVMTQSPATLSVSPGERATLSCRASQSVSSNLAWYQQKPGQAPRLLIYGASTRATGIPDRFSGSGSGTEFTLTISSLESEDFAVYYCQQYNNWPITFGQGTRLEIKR
modifications: cysteine sulfhydryls carry drug-linker B-03 (sites not stated; DAR 7.82 per antibody)
[1]
  Kd: 2.57 nM
[2]
  Kd: 1.04 nM
[3]
  Kd: 42 nM
[4]
  EC50: 8.05 ng/mL
[5]
  binding result: no binding (tested: 200 nM (highest antigen concentration))
[6]
  EC50: 3.21 ng/mL
